This is an account of results in patent publication US8465735B2, “Variant form of urate oxidase and use thereof” (Savient Pharmaceuticals, Inc., priority 2005, dated 2013).

As a reminder, the Km is the concentration of substrate that gives half-maximal velocity. Usually kcat stands for the number of substrate molecules converted per active site and unit of time at saturation.

For this data set, the system named is O=c1[nH]c(=O)c2[nH]c(=O)[nH]c2[nH]1. As to the kind of experiment: purified protein, by the assay type. The note with it: other: sodium borate buffer, pH 9.2, 25.0 °C.

Protocol: Activity of uricase was measured by a UV method. […] Uricase potency is expressed in activity units per mg protein (U/mg).
The absorbance change with time (ΔA292 per minute) was derived from the linear portion of the curve.
The specific activity (potency) of uricase was calculated by dividing the activity in U/ml with protein concentration in mg/ml.

On to “A. flavus (Aspergillus flavus) uricase, native (Merck) (Aspergillus flavus)”, for which the Km stood at 23.54 µM and the kcat is 11.2 s⁻¹.
